From US20140087995A1 (published 2014)
Numbered stars: 1 amine (or outer) side, 2 acyl side, 3 side chain; on linkers, the order of the positions; unused ones are H or OH. Bridge positions count the residues as written; N and C are the ends. Side chains are listed from the residue outwards. Ends that are not written are not given here. * marks the point of attachment. C20 diacid = O=C(O)CCCCCCCCCCCCCCCCCCC(=O)*; γGlu = O=C(O)[C@H](CCC(=O)[*:2])N[*:1]; AEEA = NCCOCCOCC(=O)O

T1: rat calcitonin receptor (rat, UniProt P32214 25-516)
T1 construct: whole, on cells; Used as membranes prepared from the transfected cells; also called rCTR; rCT
T1 sequence (looked up): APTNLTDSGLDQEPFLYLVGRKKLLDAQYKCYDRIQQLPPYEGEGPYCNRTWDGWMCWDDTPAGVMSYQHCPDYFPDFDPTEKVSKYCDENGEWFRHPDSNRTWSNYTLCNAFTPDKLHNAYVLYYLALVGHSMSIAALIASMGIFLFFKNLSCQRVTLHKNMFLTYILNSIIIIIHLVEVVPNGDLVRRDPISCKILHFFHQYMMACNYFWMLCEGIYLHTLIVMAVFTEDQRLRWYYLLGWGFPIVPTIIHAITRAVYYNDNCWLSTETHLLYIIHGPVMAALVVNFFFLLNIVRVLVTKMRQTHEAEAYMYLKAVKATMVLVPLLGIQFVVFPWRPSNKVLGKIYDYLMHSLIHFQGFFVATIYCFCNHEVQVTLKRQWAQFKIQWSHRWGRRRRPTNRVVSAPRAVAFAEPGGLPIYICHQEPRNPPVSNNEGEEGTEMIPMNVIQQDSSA

T2: human calcitonin receptor (human, UniProt P30988 25-474)
T2 construct: whole, on cells; Used as membranes prepared from the transfected cells; also called hCTR; hCT
T2 sequence (looked up): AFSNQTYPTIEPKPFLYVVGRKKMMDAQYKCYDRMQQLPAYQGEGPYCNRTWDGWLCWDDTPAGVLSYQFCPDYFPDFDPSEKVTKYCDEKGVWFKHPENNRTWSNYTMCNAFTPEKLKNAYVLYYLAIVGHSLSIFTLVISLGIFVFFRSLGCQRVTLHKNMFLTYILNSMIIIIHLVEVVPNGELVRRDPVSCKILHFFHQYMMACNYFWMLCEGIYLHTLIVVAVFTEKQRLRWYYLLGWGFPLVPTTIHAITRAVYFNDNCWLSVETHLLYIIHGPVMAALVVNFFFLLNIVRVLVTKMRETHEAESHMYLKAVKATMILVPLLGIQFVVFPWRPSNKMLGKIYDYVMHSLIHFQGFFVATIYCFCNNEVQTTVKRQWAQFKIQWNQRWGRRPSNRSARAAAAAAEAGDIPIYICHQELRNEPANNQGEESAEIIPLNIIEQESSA

B1: N^ε1-[2-[2-[2-[[(4S)-4-carboxy-4-(19-carboxynonadecanoylamino)butanoyl]amino]ethoxy]ethoxy]acetyl]-[His14,Arg17,Pro21,Pro27,Pro34]-h-amylin (peptide)
peptide: K([AEEA-γGlu-C20 diacid])CNTATCATQRLAHFLRHSSPNFGAIPSSTNVGPNTY-NH2
modifications: disulfide 2-7; N-terminus assumed
SMILES: CC[C@H](C)[C@H](NC(=O)[C@H](C)NC(=O)CNC(=O)[C@H](Cc1ccccc1)NC(=O)[C@H](CC(N)=O)NC(=O)[C@@H]1CCCN1C(=O)[C@H](CO)NC(=O)[C@H](CO)NC(=O)[C@H](Cc1c[nH]cn1)NC(=O)[C@H](CCCNC(=N)N)NC(=O)[C@H](CC(C)C)NC(=O)[C@H](Cc1ccccc1)NC(=O)[C@H](Cc1c[nH]cn1)NC(=O)[C@H](C)NC(=O)[C@H](CC(C)C)NC(=O)[C@H](CCCNC(=N)N)NC(=O)[C@H](CCC(N)=O)NC(=O)[C@@H](NC(=O)[C@H](C)NC(=O)[C@@H]1CSSC[C@H](NC(=O)[C@@H](N)CCCCNC(=O)COCCOCCNC(=O)CC[C@H](NC(=O)CCCCCCCCCCCCCCCCCCC(=O)O)C(=O)O)C(=O)N[C@@H](CC(N)=O)C(=O)N[C@@H]([C@@H](C)O)C(=O)N[C@@H](C)C(=O)N[C@@H]([C@@H](C)O)C(=O)N1)[C@@H](C)O)C(=O)N1CCC[C@H]1C(=O)N[C@@H](CO)C(=O)N[C@@H](CO)C(=O)N[C@H](C(=O)N[C@@H](CC(N)=O)C(=O)N[C@H](C(=O)NCC(=O)N1CCC[C@H]1C(=O)N[C@@H](CC(N)=O)C(=O)N[C@H](C(=O)N[C@@H](Cc1ccc(O)cc1)C(N)=O)[C@@H](C)O)C(C)C)[C@@H](C)O
notes: Analogue of human amylin; disulfide and C-terminal amide as told for h-amylin; also called compound 68
B2: N^ε1-[2-[2-[2-[[(4S)-4-carboxy-4-(19-carboxynonadecanoylamino)butanoyl]amino]ethoxy]ethoxy]acetyl]-[Lys14,Arg17,Pro21,Pro27,Pro31]-h-amylin (peptide)
peptide: K([AEEA-γGlu-C20 diacid])CNTATCATQRLAKFLRHSSPNFGAIPSSTPVGSNTY-NH2
modifications: disulfide 2-7; N-terminus assumed
SMILES: CC[C@H](C)[C@H](NC(=O)[C@H](C)NC(=O)CNC(=O)[C@H](Cc1ccccc1)NC(=O)[C@H](CC(N)=O)NC(=O)[C@@H]1CCCN1C(=O)[C@H](CO)NC(=O)[C@H](CO)NC(=O)[C@H](Cc1c[nH]cn1)NC(=O)[C@H](CCCNC(=N)N)NC(=O)[C@H](CC(C)C)NC(=O)[C@H](Cc1ccccc1)NC(=O)[C@H](CCCCN)NC(=O)[C@H](C)NC(=O)[C@H](CC(C)C)NC(=O)[C@H](CCCNC(=N)N)NC(=O)[C@H](CCC(N)=O)NC(=O)[C@@H](NC(=O)[C@H](C)NC(=O)[C@@H]1CSSC[C@H](NC(=O)[C@@H](N)CCCCNC(=O)COCCOCCNC(=O)CC[C@H](NC(=O)CCCCCCCCCCCCCCCCCCC(=O)O)C(=O)O)C(=O)N[C@@H](CC(N)=O)C(=O)N[C@@H]([C@@H](C)O)C(=O)N[C@@H](C)C(=O)N[C@@H]([C@@H](C)O)C(=O)N1)[C@@H](C)O)C(=O)N1CCC[C@H]1C(=O)N[C@@H](CO)C(=O)N[C@@H](CO)C(=O)N[C@H](C(=O)N1CCC[C@H]1C(=O)N[C@H](C(=O)NCC(=O)N[C@@H](CO)C(=O)N[C@@H](CC(N)=O)C(=O)N[C@H](C(=O)N[C@@H](Cc1ccc(O)cc1)C(N)=O)[C@@H](C)O)C(C)C)[C@@H](C)O
notes: Analogue of human amylin; disulfide and C-terminal amide as told for h-amylin; Acylation site is 1K, not Lys14; also called compound 74
B3: N^ε1-[2-[2-[2-[[(4S)-4-carboxy-4-(19-carboxynonadecanoylamino)butanoyl]amino]ethoxy]ethoxy]acetyl]-[Ser14,Arg17,Pro21,Pro27,Pro31]-h-amylin (peptide)
peptide: K([AEEA-γGlu-C20 diacid])CNTATCATQRLASFLRHSSPNFGAIPSSTPVGSNTY-NH2
modifications: disulfide 2-7; N-terminus assumed
SMILES: CC[C@H](C)[C@H](NC(=O)[C@H](C)NC(=O)CNC(=O)[C@H](Cc1ccccc1)NC(=O)[C@H](CC(N)=O)NC(=O)[C@@H]1CCCN1C(=O)[C@H](CO)NC(=O)[C@H](CO)NC(=O)[C@H](Cc1c[nH]cn1)NC(=O)[C@H](CCCNC(=N)N)NC(=O)[C@H](CC(C)C)NC(=O)[C@H](Cc1ccccc1)NC(=O)[C@H](CO)NC(=O)[C@H](C)NC(=O)[C@H](CC(C)C)NC(=O)[C@H](CCCNC(=N)N)NC(=O)[C@H](CCC(N)=O)NC(=O)[C@@H](NC(=O)[C@H](C)NC(=O)[C@@H]1CSSC[C@H](NC(=O)[C@@H](N)CCCCNC(=O)COCCOCCNC(=O)CC[C@H](NC(=O)CCCCCCCCCCCCCCCCCCC(=O)O)C(=O)O)C(=O)N[C@@H](CC(N)=O)C(=O)N[C@@H]([C@@H](C)O)C(=O)N[C@@H](C)C(=O)N[C@@H]([C@@H](C)O)C(=O)N1)[C@@H](C)O)C(=O)N1CCC[C@H]1C(=O)N[C@@H](CO)C(=O)N[C@@H](CO)C(=O)N[C@H](C(=O)N1CCC[C@H]1C(=O)N[C@H](C(=O)NCC(=O)N[C@@H](CO)C(=O)N[C@@H](CC(N)=O)C(=O)N[C@H](C(=O)N[C@@H](Cc1ccc(O)cc1)C(N)=O)[C@@H](C)O)C(C)C)[C@@H](C)O
notes: Analogue of human amylin; disulfide and C-terminal amide as told for h-amylin; also called compound 73
B4: N^ε1-[2-[2-[2-[[(4S)-4-carboxy-4-(19-carboxynonadecanoylamino)butanoyl]amino]ethoxy]ethoxy]acetyl]-[Thr14,Arg17,Pro21,Pro27,Pro31]-h-amylin (peptide)
peptide: K([AEEA-γGlu-C20 diacid])CNTATCATQRLATFLRHSSPNFGAIPSSTPVGSNTY-NH2
modifications: disulfide 2-7; N-terminus assumed
SMILES: CC[C@H](C)[C@H](NC(=O)[C@H](C)NC(=O)CNC(=O)[C@H](Cc1ccccc1)NC(=O)[C@H](CC(N)=O)NC(=O)[C@@H]1CCCN1C(=O)[C@H](CO)NC(=O)[C@H](CO)NC(=O)[C@H](Cc1c[nH]cn1)NC(=O)[C@H](CCCNC(=N)N)NC(=O)[C@H](CC(C)C)NC(=O)[C@H](Cc1ccccc1)NC(=O)[C@@H](NC(=O)[C@H](C)NC(=O)[C@H](CC(C)C)NC(=O)[C@H](CCCNC(=N)N)NC(=O)[C@H](CCC(N)=O)NC(=O)[C@@H](NC(=O)[C@H](C)NC(=O)[C@@H]1CSSC[C@H](NC(=O)[C@@H](N)CCCCNC(=O)COCCOCCNC(=O)CC[C@H](NC(=O)CCCCCCCCCCCCCCCCCCC(=O)O)C(=O)O)C(=O)N[C@@H](CC(N)=O)C(=O)N[C@@H]([C@@H](C)O)C(=O)N[C@@H](C)C(=O)N[C@@H]([C@@H](C)O)C(=O)N1)[C@@H](C)O)[C@@H](C)O)C(=O)N1CCC[C@H]1C(=O)N[C@@H](CO)C(=O)N[C@@H](CO)C(=O)N[C@H](C(=O)N1CCC[C@H]1C(=O)N[C@H](C(=O)NCC(=O)N[C@@H](CO)C(=O)N[C@@H](CC(N)=O)C(=O)N[C@H](C(=O)N[C@@H](Cc1ccc(O)cc1)C(N)=O)[C@@H](C)O)C(C)C)[C@@H](C)O
notes: Analogue of human amylin; disulfide and C-terminal amide as told for h-amylin; also called compound 75
B5: N^ε1-[(4S)-4-carboxy-4-(19-carboxynonadecanoylamino)butanoyl]-[Ala14,Arg17,Pro21,Pro27,His34]-h-amylin (peptide)
peptide: K([γGlu-C20 diacid])CNTATCATQRLAAFLRHSSPNFGAIPSSTNVGHNTY-NH2
modifications: disulfide 2-7; N-terminus assumed
SMILES: CC[C@H](C)[C@H](NC(=O)[C@H](C)NC(=O)CNC(=O)[C@H](Cc1ccccc1)NC(=O)[C@H](CC(N)=O)NC(=O)[C@@H]1CCCN1C(=O)[C@H](CO)NC(=O)[C@H](CO)NC(=O)[C@H](Cc1c[nH]cn1)NC(=O)[C@H](CCCNC(=N)N)NC(=O)[C@H](CC(C)C)NC(=O)[C@H](Cc1ccccc1)NC(=O)[C@H](C)NC(=O)[C@H](C)NC(=O)[C@H](CC(C)C)NC(=O)[C@H](CCCNC(=N)N)NC(=O)[C@H](CCC(N)=O)NC(=O)[C@@H](NC(=O)[C@H](C)NC(=O)[C@@H]1CSSC[C@H](NC(=O)[C@@H](N)CCCCNC(=O)CC[C@H](NC(=O)CCCCCCCCCCCCCCCCCCC(=O)O)C(=O)O)C(=O)N[C@@H](CC(N)=O)C(=O)N[C@@H]([C@@H](C)O)C(=O)N[C@@H](C)C(=O)N[C@@H]([C@@H](C)O)C(=O)N1)[C@@H](C)O)C(=O)N1CCC[C@H]1C(=O)N[C@@H](CO)C(=O)N[C@@H](CO)C(=O)N[C@H](C(=O)N[C@@H](CC(N)=O)C(=O)N[C@H](C(=O)NCC(=O)N[C@@H](Cc1c[nH]cn1)C(=O)N[C@@H](CC(N)=O)C(=O)N[C@H](C(=O)N[C@@H](Cc1ccc(O)cc1)C(N)=O)[C@@H](C)O)C(C)C)[C@@H](C)O
notes: Analogue of human amylin; disulfide and C-terminal amide as told for h-amylin; also called compound 93

target: T1, rat calcitonin receptor; experiment: ratio of binding IC50 at rat calcitonin receptor to IC50 at rat amylin receptor (reference)

| Binder | Ratio rCT/rAmylin binding |
| --- | --- |
| B1 | 122 |
| B2 | 22.3 |
| B3 | 178 |
| B4 | 110 |
| B5 | 83.2 |

target: T2, human calcitonin receptor; experiment: ratio of binding IC50 at human calcitonin receptor to IC50 at human amylin receptor (reference)
Procedure, shortened: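 Membranes (35 ng/μL final) + SPA beads, 50 mM Hepes pH 7.4 buffer with 1 mM CaCl2, 5 mM MgCl₂, 0.1% OA, 0.02% Tween20; 120 min, 25° C, shaking; centrifuged, counted; IC₅₀ by one-site binding competition.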

| Binder | Ratio hCT/hAmylin binding |
| --- | --- |
| B1 | 64.4 |
| B2 | 101 |
| B3 | 51.7 |
| B4 | 91.4 |
| B5 | 101 |

target: T1, rat calcitonin receptor; experiment: SPA competition with 125I-calcitonin, membranes with rat calcitonin receptor (Assay VIII)

| Binder | IC50 |
| --- | --- |
| B1 | 0.0285 µM |
| B2 | 0.109 µM |
| B3 | 0.0503 µM |
| B4 | 0.442 µM |
| B5 | 0.131 µM |
